B1: C. incerta 15S-LOX (Chlamydomonas incerta) (protein)
chain: MNGAHSPGEVAVWKASIESSAPLLGDTGTRLEIVVIDLDTDRRSEPTNVDSWRPPVLESGPGSSTARSGASSGSGTSGWKREGRLPLPADFLTPGAVLVRKSRTVDGNASVDFIGTIKLVSATKVFHFPVHSWVSSDHDWRVFFEGTAYLPAHTPPSLRDERQRELQELQGTPATRTLERRPADRIYWYQTYDDLSSAGEGGYRPALGATARRPYPRRIATNRGAADGHPDREKPPVKAGDKPWLPYDEQFSFDKAADFNGDTLTAALPAAFSFIAEAGDQRHLTWLNLLPTAVHGLVRNVLRAVLGYAEPPAANFDSFEDVLAFFGEDAASRGSSMAPTQLYPAGQEAAMKGFGAPHDPRNPAPFKTASGAWDFRLNSAAAAAINDQIAADRVGPVPDSATGGPSSGAATAATAFAATAAAATAAGAPAAAITAPPQPGVPNLIGLLGSAVWRRLTNDPSHDINDLLYFPVPRVVDGRPDAWYTDEEYGRQALAGYHPTAITALTQLPEAFGSAIRAHHVEAELQGSSLEALVAAAAGGAKPRLYLIDHWDLSAYWQEAEEEAEAARKAGRKPPSAVQHAGRCLFYLRKDEVTGEDTALVPIAIELAHPGTHKASNGTSAPLPPTAGEVYARSELVASPQTLAVWRLAKAVFRSLDTSIHQLVAHFNRTHAALEPFLIAMRRQMSVMHPITKLMLPHFRYTLNINRNARASLINAGGIIEKTFSAGPFAMRLASAVYGKSWTFAGQALPEDLRERGMLDAAGRPWLDYPFAIDGLDTWAALTAYFDQYVSLYYDGDGAVLEDGELQAWWDEVKTEGHPDIVAFGLKSEQQVWGFTGPIAKRSDLVHVLATIAWLASGHHAAVNFGQYDFTGLILNASSLVRRPMPAPKEPAYKELTGAALGPPQERVFMTYLADPFSAVQVLATVKLLSAHARDEHTLDEANDYIVDPAAREANRAFIAAVKQLESAIETRNADPANWARYGLAAGTAAPLPYTLLMASSPPGVTMRGVPYSVSI
notes: synthesized gene in pET-28a(+), E. coli ER2566, His-Trap purified, His6 tag kept; 1016 residues plus six His, 109,248 (kDa [sic]), dimer 219 kDa

Columns and labels:
[1] = biological target: T1, V. carteri f. nagariensis LOX (D8U0N8) (Volvox carteri, UniProt D8U0N8); assay: product analysis after reaction with ARA; assay type: cell-based; conditions: enzyme preparation not stated; products HETE and DiHETE
T1 construct: gene VOLCADRAFT_105417; synthesized gene in pET-28a(+), expressed in E. coli ER2566
T1 sequence (D8U0N8 1-1056): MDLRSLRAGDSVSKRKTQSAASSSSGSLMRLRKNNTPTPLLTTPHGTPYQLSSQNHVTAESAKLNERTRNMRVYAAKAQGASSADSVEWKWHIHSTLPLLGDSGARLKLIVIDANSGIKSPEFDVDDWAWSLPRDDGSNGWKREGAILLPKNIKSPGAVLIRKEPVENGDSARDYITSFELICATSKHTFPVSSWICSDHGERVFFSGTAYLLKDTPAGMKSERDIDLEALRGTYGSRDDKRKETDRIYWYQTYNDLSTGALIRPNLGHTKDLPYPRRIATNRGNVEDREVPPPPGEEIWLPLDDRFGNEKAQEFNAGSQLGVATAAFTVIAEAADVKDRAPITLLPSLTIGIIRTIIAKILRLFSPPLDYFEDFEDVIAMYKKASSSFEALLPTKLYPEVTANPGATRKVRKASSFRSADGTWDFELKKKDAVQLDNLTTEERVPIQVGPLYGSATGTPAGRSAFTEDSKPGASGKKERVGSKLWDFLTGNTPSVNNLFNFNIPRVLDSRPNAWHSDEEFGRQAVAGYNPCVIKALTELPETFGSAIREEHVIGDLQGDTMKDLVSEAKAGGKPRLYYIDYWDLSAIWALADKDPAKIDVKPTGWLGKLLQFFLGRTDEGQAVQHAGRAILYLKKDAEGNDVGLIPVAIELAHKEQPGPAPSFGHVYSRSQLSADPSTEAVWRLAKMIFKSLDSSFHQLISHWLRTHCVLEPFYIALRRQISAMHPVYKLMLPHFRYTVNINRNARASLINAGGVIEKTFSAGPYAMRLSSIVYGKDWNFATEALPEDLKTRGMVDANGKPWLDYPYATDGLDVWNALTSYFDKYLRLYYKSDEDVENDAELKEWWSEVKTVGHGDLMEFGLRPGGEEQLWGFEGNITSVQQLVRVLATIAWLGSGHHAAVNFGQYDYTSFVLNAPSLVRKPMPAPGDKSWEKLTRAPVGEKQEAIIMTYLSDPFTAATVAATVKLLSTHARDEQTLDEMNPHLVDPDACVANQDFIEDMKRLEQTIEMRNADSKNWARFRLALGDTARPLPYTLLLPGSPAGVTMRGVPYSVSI

purified protein [2] = substrate: CCCCC/C=C\C/C=C\C/C=C\C/C=C\CCCC(=O)O; assay: purified protein; assay type: biochemical, Chlamydomonas incerta; conditions: 50 mM HEPPS pH 7.5, 35°C, 5 min, substrate 0.05-0.2 mM, product 15S-HETE (first oxygenation)
purified protein [3] = substrate: CC/C=C\C/C=C\C/C=C\C/C=C\C/C=C\C/C=C\CCC(=O)O; assay: purified protein; assay type: biochemical, Chlamydomonas incerta; conditions: 50 mM HEPPS pH 7.5, 35°C, 5 min, substrate 0.05-0.2 mM, product 17S-HDHA (first oxygenation)
purified protein [4] = substrate: CC/C=C\C/C=C\C/C=C\C/C=C\C/C=C\CCCC(=O)O; assay: purified protein; assay type: biochemical, Chlamydomonas incerta; conditions: 50 mM HEPPS pH 7.5, 35°C, 5 min, substrate 0.05-0.2 mM, product 15S-HEPA (first oxygenation)

Molecule	product analysis after reaction with ARA [1]	Km (purified protein [2]) [µM]	kcat (purified protein [2]) [s⁻¹]	kcat/Km (purified protein [2]) [M⁻¹ s⁻¹]	Km (purified protein [3]) [µM]	kcat (purified protein [3]) [s⁻¹]	kcat/Km (purified protein [3]) [M⁻¹ s⁻¹]	Km (purified protein [4]) [µM]	kcat (purified protein [4]) [s⁻¹]	kcat/Km (purified protein [4]) [M⁻¹ s⁻¹]
CCCCC/C=C\C/C=C\C/C=C\C/C=C\CCCC(=O)O [ARA]	only those from V. carteri f. nagariensis (D8U0N8)	–	–	–	–	–	–	–	–	–
B1	–	101 ± 0.02	149 ± 0.2	1.47e+06 ± 100000	98.5 ± 0.1	121 ± 0.2	980000 ± 100000	191 ± 0.1	143 ± 0.2	750000 ± 100000

Reference: PMC12152530, “Efficient One‐Step Production of 7S,17S‐ and 10S,17S‐Dihydroxydocosahexaenoic Acids by a Double‐Oxygenating 15S‐Lipoxygenase From Chlamydomonas incerta” (Biotechnology and Bioengineering, 2025)
